From patent US20260125472A1 (HEFEI TG IMMUNOPHARMA, published 2026)

Experiments:
CD3 on CD8 T cells = target: T1, CD3 on CD8 T cells (Homo sapiens (Human), UniProt P07766 23-207); assay: flow cytometry, CD8 T cells in PBMCs, MFI [panel B]
T1 construct: Native CD3 complex on CD8 T cells among PBMCs; also called T cells (PBMCs gated with anti-human CD8 antibody)
Procedure: (1) PBMCs were diluted to 2×10⁶/ml with PBS and added to a 1.5 ml EP tube at 100 μl/tube, goat serum was added thereto at 10 μl/tube. The cells were blocked at 4° C. for 30 min. The serially diluted bispecific antibodies, Cross3×Trop2, Cross303×Trop2, Cross307×Trop2, Cross308×Trop2, Cross309×Trop2, Cross310×Trop2, Cross311×Trop2, Cross312×Trop2, Cross313×Trop2, Cross314×Trop2, Cross316×Trop2, Cross317×Trop2, Cross318×Trop2, Cross323×Trop2, Cross325×Trop2, Cross326×Trop2, Cross3×PDL1, Cross313×PDL1, Cross316×PDL1, Cross325×PDL1, and control hIgG1LALA (purchased from Bio-Tech) were added and incubated at 4° C. for 30 min. 1 ml of PBS was added to the EP tube, followed by centrifugation at 3500 rpm for 5 min at 4° C. The supernatant was discarded, and the system was washed again with PBS. After centrifugation, the supernatant was discarded, and the cells were resuspended with PBS at 100 μl/tube. 1 μl/tube Alexa-647-labeled goat anti-human IgG secondary antibody (purchased from Jackson lab) and 0.5 μl/tube PerCP-Cy5.5-labeled anti-human CD8 antibody were added and incubated at 4° C. in the dark for 30 min. The cells were washed twice with PBS. After centrifugation, the supernatant was discarded. The cells were resuspended with 200 μl/tube of PBS and assay is performed by flow cytometry.

CD3E&D protein = target: T2, CD3E&D protein (UniProt P04234 22-105); assay: ELISA, coated CD3E&D protein, OD450
T2 construct: Purchased from Acro; also called CD3 E&D antigens; CD3E&D antigen protein
T2 sequence (chain, as listed by the source limits assumed, chain 1 of 2): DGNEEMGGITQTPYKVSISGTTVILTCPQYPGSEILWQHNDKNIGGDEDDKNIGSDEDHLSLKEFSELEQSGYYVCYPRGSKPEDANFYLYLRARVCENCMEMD
T2 sequence (P04234 22-105 limits assumed, chain 2 of 2): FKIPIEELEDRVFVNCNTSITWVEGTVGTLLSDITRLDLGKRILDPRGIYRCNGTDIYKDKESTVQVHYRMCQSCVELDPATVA
Text: In this example, the binding properties of the CD3×Trop2 and CD3×PDL1 bispecific antibody (the production method and the amino acid sequences of the heavy and light chains were shown in Example 1) were detected by using ELISA. The CD3E&D, Trop2, or PDL1 protein was coated onto 96-well plates by inventors, and the strength of the signal after the addition of the antibody was used to determine the binding properties of the antibody and the corresponding protein.
(1) CD3E&D protein (purchased from Acro) was diluted to 2 μg/ml with PBS buffer, added to a 96-well plate at a volume of 100 μL/well, and placed at 4° C. overnight. The PBS buffer in the 96-well plate was aspirated, and the plate was washed 6 times with PBST (pH 7.2 PBS containing 0.1% Tween 20) buffer. Then, 200 μL/well PBS/10% BSA was added and incubated at 37° C. for 2 h for blocking. The blocking solution was removed, and the plate was washed 6 times with PBST. […] The absorbance was read at 450 nm using a microplate reader.

T1 sequence (P07766 23-207 limits assumed): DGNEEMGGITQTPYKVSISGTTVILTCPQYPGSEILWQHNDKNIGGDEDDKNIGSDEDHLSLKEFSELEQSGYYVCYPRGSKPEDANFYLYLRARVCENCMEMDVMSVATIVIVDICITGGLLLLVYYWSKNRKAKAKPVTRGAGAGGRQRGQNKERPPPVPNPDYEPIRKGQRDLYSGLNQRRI

- EC50 (read off the curve) (CD3 on CD8 T cells): ~4 µg/mL
- EC50 (read off the curve) (CD3E&D protein): ~0.04 µg/mL
B1: Cross311×Trop2 (bispecific antibody)
scFv: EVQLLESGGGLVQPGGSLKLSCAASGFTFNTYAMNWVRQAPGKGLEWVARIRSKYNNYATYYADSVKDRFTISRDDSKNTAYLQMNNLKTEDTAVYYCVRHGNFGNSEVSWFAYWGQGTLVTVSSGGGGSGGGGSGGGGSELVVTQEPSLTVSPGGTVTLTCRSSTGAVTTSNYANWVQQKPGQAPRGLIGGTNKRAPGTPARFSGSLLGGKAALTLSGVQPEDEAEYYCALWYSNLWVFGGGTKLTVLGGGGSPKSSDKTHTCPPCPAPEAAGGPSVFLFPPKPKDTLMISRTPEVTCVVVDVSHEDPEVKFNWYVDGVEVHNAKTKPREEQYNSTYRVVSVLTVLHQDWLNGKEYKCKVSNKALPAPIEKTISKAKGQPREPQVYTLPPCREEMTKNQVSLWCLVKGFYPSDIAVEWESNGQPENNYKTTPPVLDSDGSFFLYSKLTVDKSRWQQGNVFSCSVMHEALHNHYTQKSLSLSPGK
heavy: QVQLQQSGSELKKPGASVKVSCKASGYTFTNYGMNWVKQAPGQGLKWMGWINTYTGEPTYTDDFKGRFAFSLDTSVSTAYLQISSLKADDTAVYFCARGGFGSSYWYFDVWGQGSLVTVSSASTKGPSVFPLAPSSKSTSGGTAALGCLVKDYFPEPVTVSWNSGALTSGVHTFPAVLQSSGLYSLSSVVTVPSSSLGTQTYICNVNHKPSNTKVDKKVEPKSSDKTHTCPPCPAPEAAGGPSVFLFPPKPKDTLMISRTPEVTCVVVDVSHEDPEVKFNWYVDGVEVHNAKTKPREEQYNSTYRVVSVLTVLHQDWLNGKEYKCKVSNKALPAPIEKTISKAKGQPREPQVCTLPPSREEMTKNQVSLSCAVKGFYPSDIAVEWESNGQPENNYKTTPPVLDSDGSFFLVSKLTVDKSRWQQGNVFSCSVMHEALHNHYTQKSLSLSPGK
light: DIQLTQSPSSLSASVGDRVSITCKASQDVSIAVAWYQQKPGKAPKLLIYSASYRYTGVPDRFSGSGSGTDFTLTISSLQPEDFAVYYCQQHYITPLTFGAGTKVEIKRTVAAPSVFIFPPSDEQLKSGTASVVCLLNNFYPREAKVQWKVDNALQSGNSQESVTEQDSKDSTYSLSSTLTLSKADYEKHKVYACEVTHQGLSSPVTKSFNRGEC
